This data set is described as follows: label from the status in PepcDB records.
For the sequence “AANPDIMYRLLIQSVVDYAIYLLTPEGIVANWNPGAQRAKGYRAEEIVGQHYSLFYTDAERAAGLPAFNLEQARSTGRFEETGARLRKDGTAFHAHVVIEAVYDDAGQLVGFAKVTRDISERHRQELELLQAKELAEQYSQEMAKLSQFLDSVIANIP”, the protein production result is on record as “failed”.
The same measure for “GERRIPESRILRREVVEATSAVAAALQIPARAPVIEMTRVRLIDGAPMLAEEIWLPYDRFAAFSRLELDSIGDLLYPVYEAHCNQIVASATETLTVEAIGPAHARLLRIEPGTPAVVIERLAYGYDRRPLEWRRSRGPASEFIYQAEIR”: “failed”; for “MDFLLRTITMNERRALGFGVAAVLLWSTVATAFKITLEHFTPTQMLTIASAVSILALAGVAAYQKTLSQLIDTFLANPLYYILLGAINPLAYYLVLFKSYDLLPASQAQPLNYSWAITLTLMAAVFLGQKIRKQDWIACVLGYLGVIVIATKGDVLALEFDSPLGVGLALFSTLLWAGYWILNTKNKADPILGLLLGFLVALPVAIGLSIYEGAPWAQIPMSGWAAVSYVGLFEMGVTFVLWLSALRLTQNTARISNLIFASPFISLLLLANIIGEEIHPSTLIGLIMIVCGLLIQQFFGKKEELQTEQ”: “failed”.
For the sequence “MLSLKSEVLARHLPLFNGKSILLFGNVRDRFADQIRSISSHVAIFSHYFDYARHYNDVEFGLDCTTPANLGVFYWTKNKQECHYQLLQWLSQTAIGQQMLIIGENRAGVRSVEKLLSPFGQIAKIDSARRCGLYHFELQTIPQFDCQKFWKSYRLADLTVLSLPAAFSSTELDAGSQLLLSSFTNQDRLTGNVLDLGCGAGVIGAYLKQRFPAISLTMSDIHSMAIHSAQATLAKNKLTGTVIASDVFSHINDRFDLIVSNPPFHDDIDTAYHTVESLIMQAKNHLNYGGELRIVANAFLPYPDLLDKAFGSHQVVTKSNKFKVYSARV”, the protein production entry is “failed”.
On to “REKLFLQPVKPTDSMRMEVSSPKLAIGVRGKREVSEADCYRHHILLKLLFAMMFGWTSDRFQKCYESGKIDASLSLEVEITSRFHFVMLTMDTKEPVALSHQFRKAIRNFTKDLDITEEHLDIIKREMFGEFFSSMNSLEFIATQYDAFENGEIIFDLPKILQEITLEDVLDAGHHLIDDGDIVDFTIFP”, for which the protein production result is on record as “failed”.
Regarding “MSSSTDTAMAAAEPIWLQHLAEQNIADFIPHRAPMILIDKIISHQQDALETEVLITPQSAYFDEHRQAVPNYVGIEYMAQSIAALAGVEAKLRHDKIRVGFLLGSRKLALHTAQYELNRRYRTQVKRLYQEESGLAVFDCQIYLLPEAQAQQTPLLVAEANVNVFQPQDTQAYIASSQQA”, the protein production result was “failed”.
For “MMSNALRRFDPAWFEKYDGIIKHERLGTHVGKPNSSHNYAIEKCVNLMNQGQSIVHALFKQDDVMKREYHIPLNTSIDASRYLLRQGIAFHGHDESEESANKGNFLELVKYTGEQNDATEQMAVVFRFVDKSGTVKERFIEVVHVKETSSASVKSAIDDLFAKYGLSLKTVRGQGYDGASIMKVAKGVAKSFDLLSLLLKIIVVYK”, the protein production result is reported as “failed”.
In the case of “MTSLSSKRVAETLDKLHAEAEAADRALMAEMMAQAERSGETLKDLAAKFVDEERLNYRTTYQEHADHFLAISSAYGRFLYAIARARRATRIVEFGTSMGISTIYLAAALRDNGGGRLIGSEIEPTKVARARAHLEATGLADLVDIREGDALDTLKDVGCEVDILSIDGAFSLYLPVLKLIEPRLTPGAVILGENAFAQDYLDYVRAPANGYFSRSLDIDEGRGNEFTVRVG” it was “failed”; in that of “MDSRKALDGLAVTLMIILCLTWGLQQVALKATSAEIAPLMQIAIRSGISALLVGIMMAVRGERLSLAGGMWRPGLAVGFLFALEYLLVGEGLRHTTASHMVIFLYTAPVFAAIGLHLKLRSERLRPVQWFGIALAFGGIVVSFYGRGGHTASLSVASVIWGDVLGLAAGMAWGMTTVVIRTSRLAACSATQTLLFQLLGAFILLLPAAAVLDQTYFNPTRLGWACLIFQTLIVSFASFLVWFWLLRHYVASRLGVLSFMTPLFGVALGAWLLNEPLERGFLAGALLVLTGIILVSGHGWLRQLGNGAGAAVQEQAREPDLP”, “failed”; in that of “MKIESLDLPDEIKRFYENSGILELYPPQAEAVEKGLLEGKNLLAAIPTASGKTLLAELAMLKSVLNGGKALYIVPLRALASEKFRRFQEFSVLGMRVGISTGDYDRRDEGLGINDIIVATSEKTDSLLRNETAWMQEISVVVADEVHLIDSPDRGPTLEITLSKLRRMNPSCQVLALSATVGNADELAAWLDAELVLSEWRPTDLMEGVFYNGIFYCKDKEKPVGQPTKDEAVNLVLDTIKEGGQCLVFESSRKNCMGFAKKAVSAVKKTLSNEDRETLAGIADEIIENSETDVSSVLATCVRSGTAFHHAGLTTPLRELVENGFREGRIKIISSTPTLAAGLNLPARRVIIRSYRRYSSDSGMQPIPVLEYKQMAGRAGRPRLDPYGEAVLLAKSYEEFVFLFEKYIEAGAEDIWSKLGTENALRTHILSTISNGFARTREELMDFLEATFFAFQYSNFGLSAVVDECLDFLRREGMLEKDPDALVSTVFGKLVSRLYIDPLSAALIAKGLREAGTLTELTLLHLICSTPDMRLMYMRSQDYQEVNDYVMAHAGEFSKVPNPFNIAEYEWFLGEVKTSLLLMDWIHEKPENEICLKFGIGEGDIHATADIAEWIMHVTAQLAGLLDLKGAKEASELEKRIRYGAAPELMDLLDIRSVGRVRARKLYEAGFKSTAELAAASPEHIAVLVGPKITERIFKQIGRREAVSEFSDIEPLEKGSSDGQRTISDY”, “failed”.
In the case of “MRILTLGLDGSGEFAFQSHAHTDHFANGRLIFATRPTIFLSHLRNSRYYIPVDFGKKFYIGDFKAKLYPSGHILGSSGIKIWLDEGTLYYTGDVKVKKLRTVERAKLPKADFLIIESTFGLPRFTFPDPRESEKVIIGIVEDLIDRGKVPTFMANPYGKAQEIIKILNVHGYSVSVDREIAKVSKFYMKFGVRLKFEKEGEVKVSSSKGISVSGFGRIKLSNHADFWELLEIVERVNPEKVFTVYGHAEAFAKILNGLGYEAKSIRRNQKLEVWLEHHHHHH”, the protein production result was “failed”.
For “TPLSLTLDHWSEIRSRAHNLSVEIKKGPWRTFCASEWPTFDVGWPPEGTFDLTVIFEVKAIVFQDGPGSHPDQQPYITVWQDLVQNSPPWIK”, the protein production result was “not failed”.
For “MKPSLIYMYNINKKQIIISLLSFIFVVAVAFVSLGNYIKQESGEVRQTIIVAFVILVYITFLAMIVIQAVSAFGKMTESTLFRLTSISGKKIVLAILLYAVIYLLIFELIGSIFLYGISMKIIKGTELYEVLFTQSVFNPLKHLFSTMLYVFNLSSILLVLLFSVASVKVFSLKKKKLKYPMVFFLFLLVTKLLGTIYGMLGGLAPAAPLIKKLVYIDESSGADVFLYPEKLMNLYSLSFSIGIFILLVYITGRIIDKKLEV”, the protein production result is on record as “failed”.
For the sequence “MPKTLIILAHPNISQSTVHKHWSDAVRQHTDRFTVHELYAVYPQGKIDVAAEQKLIETHDSLVWQFPIYWFNCPPLLKQWLDEVLTYGWAYGSKGKALKGRKIALAVSLGAPAADYRADGAVGCSVAEVLRPFELTAKYCNADYRPPFTFHTIDSNAGYSEAARQEVERSARDYLAWLDALEHHHHHH”, the protein production entry is given as “not failed”.
In the case of “MAIFMSYVLLGLSLAAPIGPVNAAQLDRGIKNGFFHAWLVGLGAITADVIYMLLVFFGLVHFLQLPFMQTFLWLFGFFVLVYTGIETISSVNHLKEATNMRTSETYRKSFIYGFLMSISNPLTILFWLGIFGSVLAKTASVYGPAQLVFYSSAILIGLLLWDVAMAGIASGARHMLTPARLKIVSILSGLTLIGFGVYFGLQACRVLFG” it was “failed”; in that of “MCEHHHAAKHILCSQCDMLVALPRLEHGQKAACPRCGTTLTVAWDAPRQRPTAYALAALFMLLLSNLFPFVNMNVAGVTSEITLLEIPGVLFSEDYASLGTFFLLFVQLVPAFCLITILLLVNRAELPVRLKEQLARVLFQLKTWGMAEIFLAGVLVSFVKLMAYGSIGVGSSFLPWCLFCVLQLRAFQCVDRRWLWDDIAPMPELRQPLKPGVTGIRQGLRSCSCCTAILPADEPVCPRCSTKGYVRRRNSLQWTLALLVTSIMLYLPANILPIMVTDLLGSKMPSTILAGVILLWSEGSYPVAAVIFLASIMVPTLKMIAIAWLCWDAKGHGKRDSERMHLIYEVVEFVGRWSMIDVFVIAVLSALVRMGGLMSIYPAMGALMFALVVIMTMFSAMTFDPRLSWDRQPESEHEES”, “failed”.
For “MRIGQYQLRNRLIAAPMAGITDRPFRTLCYEMGAGLTVSEMMSSNPQVWESDKSRLRMVHIDEPGIRTVQIAGSDPKEMADAARINVESGAQIIDINMGCPAKKVNRKLAGSALLQYPDVVKSILTEVVNAVDVPVTLKIRTGWAPEHRNCEEIAQLAEDCGIQALTIHGRTRACLFNGEAEYDSIRAVKQKVSIPVIANGDITDPLKARAVLDYTGADALMIGRAAQGRPWIFREIQHYLDTGELLPPLPLAEVKRLLCAHVRELHDFYGPAKGYRIARKHVSWYLQEHAPNDQFRRTFNAIEDASEQLEALEAYFENFA”, the protein production entry is recorded as “failed”.
With “QEIRPMPADSAYGVVHISVCNMRDEGKFTSGMSTQALLGMPVKVLQYTGWYEIQTPDDYTGWVHRMVITPMSKEKYDEWNRAEKIVVTSHYGFTYEKPDDDSQTVSDVVAGNRLKWEGSKGHFYKVSYPDGRQAYISRHISQPESKWRASLKQDAESIIKTAYTMIGIPYLWAGTSSKGVDCSGLVRTVLFMHDIIIPRDASQQAYVGERIEIAPDFSNVQRGDLVFFGRKATADRKEGISHVGIYLGNKRFIHALGDVHISSFDPEDECYDEFNTGRLLFATRFLPYINKEKGMNTTDHNLYYLHH”, the protein production entry is on record as “not failed”.
In the case of “MAEELLAPEVIADLKARAISQPLVEHIYTADPSAHVFNGKIYIYPSHDIEAGIPFNDNGDHFGMEDYHVISLDSPDSPAVDNGVALHVKDVAWAERQMWPPDAAHKNGKYYLYFPAKRANGIFQIGVAVGDSPIGPFKAEPEAIKGSYSIDPAVFEDNDGEYYMYYGGIWGGQLQNYRNNQYDANRGEPADNEPALGPIVARLTADMKEFAEAPREIQILDQDGKPLLAGDHDRRFFEASWVHKYNDQYYFSYSTGNTHFLCYATGDNPYGPFTYRGQILTPVIGWTTHHSIAEYQGQWYLFYHDCVLSKGITHLRSVKMAPLTHKADGSIETITPYRD”, the protein production result was “failed”.
Turning to “MKKTRRILLGLALIIGLSVGAGCRSTASKSKTANASQSATTRTVTDMAGTKVKIPTKVTRVADLWHANNQVVLLLGGQKKLVATTQMIKQSPWFKTIDPGISRVTAPFAGDDLQTEELLKAKPDVVIAADTAQVKQARKAKIPTINAMYQTFAGLRQSVNLTAQVLGGTAPKIAKAYQKTLTTNLNDVKNRLKDVTFKPKVLHFVNATNLNQVDGTGTIVNEWIKAAGGQNALKQKGNMISVTTETLAKSDPDVIIVGSATTAEARAALKKNAVLSKLTAVKKNRVYGNPQGTFPWDRYSAEEALQVLWAAKKLHPDQFQDLNMVAKTKAFYQQFYHYQLSTAQANRLLNGASSPK”, the protein production result is “failed”.
With “MKLAKLIPKRFFIRSKDRSTVSKSPTAFSFGSASSSSGQDCKNSGGDGGGGSVTPTSILPEVPSPYSYVEILQAFKLIDRDNDGAVSRHDLESLLSRLGPDPLTEEEINVMLKEVDCDGDGTIRLEELASRVVSLDPARDSTELKETFEFFDADRDGLISADELLRVFSTIGDERCTLDDCKRMIADVDEDGDGFVCFTEFSRMMDLQR”, the protein production result was “failed”.

The record behind these values is a protein production outcome set (Wang et al. 2014).
